The values below come from patent publication US20230201361.

Data set [1] addresses control peptide, an HES-bearing peptide of the same length, with the same labeling, that does not contain the conformation-dependent cleavage site.
The target in data set [2] is eighteen amino acid peptide containing the amino acid sequence PLGIA, covalently labeled with the same fluorophore near each end (HES structure).

B1: MMP-19 (protein)
chain: YLLLGRWRKKHLTFRILNLPSTLPPHTARAALRQAFQDWSNVAPLTFQEVQAGAADIRLSFHGRQSSYCSNTFDGPGRVLAHADIPELGSVHFDEDEFWTEGTYRGVNLRIIAAHEVGHALGLGHSRYSQALMAPVYEGYRPHFKLHPDDVAGIQALYGKKSPVIRDEEEEETELPTVPPVPTEPSPMPDPCSSELDAMMLGPRGKTYAFKGDYVWTVSDSGPGPLFRVSALWEGLPGNLDAAVYSPRTQWIHFFKGDKVWRYINFKMSPGFPKKLNRVEPNLDAALYWPLNQKVFLFKGSGYWQWDELARTDFSSYPKPIKGLFTGVPNQPSAAMSWQDGRVYFFKGKVYWRLNQQLRVEKGYPRNISHNWMHCRPRTIDTTPSGGNTTPSGTGITLDTTLSATETTFEY
On to B1, for which the fluorescence intensity entry is reported as “The fluorescence of the latter does not increase upon addition of the MMP” in data set [1] and “Cleavage of the peptide gives rise to an increase in fluorescence intensity” in data set [2].
